Source: patent US20260055182A1 (CIS BIOPHARMA, published 2026)
Residue numbers refer to the chain shown, from its start. Names and notes keep the numbering of the source.

Assays:
[1] = molecular target: T1, L1-CAM recombinant protein (His Tag), human (human, UniProt P32004 20-1120); assay: GCI (Creoptix WAVEdelta); antibody captured on protein A/G, L1-CAM as analyte, 1:1 model
T1 construct: Bought protein; also called CD171; human L1-CAM; not shown: His tag

[2] = molecular target: T1, L1-CAM recombinant protein (His Tag), …; assay: SPR (Biacore 8K); L1-CAM immobilised on CM5 chip, antibody as analyte
Experimental: (§1) In the SPR experiment, antigen is immobilized on sensor chip and solutions containing antibody at various concentrations are flown over the antigen. real time measurement of kinetics parameters is performed, including their on/off rates (ka and kd). Based thereon, binding affinity constant KD is determined.

[3] = molecular target: T1, L1-CAM recombinant protein (His Tag), …; assay: ELISA, human L1-CAM coated at 2 µg/ml
[4] = molecular target: T1, L1-CAM recombinant protein (His Tag), …; assay: SPR (Biacore 8K) as in Example 6, new batch of L1-CAM on the chip
Experimental: as §1

[5] = molecular target: T1, L1-CAM recombinant protein (His Tag), …; assay: SPR (Biacore 8K); L1-CAM immobilised on CM5 chip, antibody as analyte; remark: listed apart in the source
Experimental: as §1

[6] = molecular target: T1, L1-CAM recombinant protein (His Tag), …; assay: ELISA, human L1-CAM coated at 2 µg/ml; first of two values in the cell; first of two values in the cell
[7] = molecular target: T1, L1-CAM recombinant protein (His Tag), …; assay: ELISA, human L1-CAM coated at 2 µg/ml; second of two values in the cell; second of two values in the cell
[8] = molecular target: T1, L1-CAM recombinant protein (His Tag), …; assay: ELISA, human L1-CAM coated at 2 µg/ml; first of two values in the cell
[9] = molecular target: T1, L1-CAM recombinant protein (His Tag), …; assay: ELISA, human L1-CAM coated at 2 µg/ml; second of two values in the cell

T1 sequence (P32004 20-1120 limits assumed): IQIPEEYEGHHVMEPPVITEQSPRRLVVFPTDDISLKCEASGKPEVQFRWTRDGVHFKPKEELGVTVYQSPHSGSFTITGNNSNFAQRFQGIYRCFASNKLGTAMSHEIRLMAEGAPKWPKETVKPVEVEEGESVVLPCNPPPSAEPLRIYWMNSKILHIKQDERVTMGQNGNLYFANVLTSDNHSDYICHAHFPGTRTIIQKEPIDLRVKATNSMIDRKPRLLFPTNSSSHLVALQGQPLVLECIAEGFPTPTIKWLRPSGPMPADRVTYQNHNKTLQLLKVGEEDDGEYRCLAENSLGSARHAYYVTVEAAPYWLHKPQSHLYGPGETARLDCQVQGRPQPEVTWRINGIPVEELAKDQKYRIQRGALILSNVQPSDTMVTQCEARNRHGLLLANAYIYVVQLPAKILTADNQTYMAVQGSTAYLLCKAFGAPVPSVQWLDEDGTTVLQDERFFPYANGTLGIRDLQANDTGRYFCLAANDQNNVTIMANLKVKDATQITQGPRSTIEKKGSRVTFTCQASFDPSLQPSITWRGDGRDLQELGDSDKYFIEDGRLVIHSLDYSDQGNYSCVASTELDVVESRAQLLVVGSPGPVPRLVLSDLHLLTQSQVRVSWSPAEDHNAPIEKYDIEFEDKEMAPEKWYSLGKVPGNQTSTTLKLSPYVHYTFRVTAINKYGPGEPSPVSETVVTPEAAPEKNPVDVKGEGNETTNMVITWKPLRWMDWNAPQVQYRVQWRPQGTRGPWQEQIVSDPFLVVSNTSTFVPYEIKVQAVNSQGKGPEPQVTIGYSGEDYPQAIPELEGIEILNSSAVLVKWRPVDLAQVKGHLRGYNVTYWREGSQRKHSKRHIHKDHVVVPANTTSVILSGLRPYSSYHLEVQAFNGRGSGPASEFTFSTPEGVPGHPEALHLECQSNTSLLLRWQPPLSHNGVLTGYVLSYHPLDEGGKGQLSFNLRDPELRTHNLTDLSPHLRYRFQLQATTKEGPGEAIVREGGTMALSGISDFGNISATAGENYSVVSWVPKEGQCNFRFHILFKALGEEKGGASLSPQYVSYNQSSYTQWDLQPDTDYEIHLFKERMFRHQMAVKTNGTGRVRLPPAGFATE

B1: CE7-variant7-AG (antibody, human IgG1, kappa, L234A L235A, N297A)
heavy: QVQLVQSGAEVKKPGASVKVSCKASGYTFTGYWMHWVRQAPGQGLEWIGEINPSNGRTNYNERFQGRVTLTVDKSISTAYMELSRLRSDDTAVYYCARDYYGTSYNFDYWGQGTLVTVSSASTKGPSVFPLAPSSKSTSGGTAALGCLVKDYFPEPVTVSWNSGALTSGVHTFPAVLQSSGLYSLSSVVTVPSSSLGTQTYICNVNHKPSNTKVDKKVEPKSCDKTHTCPPCPAPEAAGGPSVFLFPPKPKDTLMISRTPEVTCVVVDVSHEDPEVKFNWYVDGVEVHNAKTKPREEQYASTYRVVSVLTVLHQDWLNGKEYKCKVSNKALPASIEKTISKAKGQPREPQVYTLPPSREEMTKNQVSLTCLVKGFYPSDIAVEWESNGQPENNYKTTPPVLDSDGSFFLYSKLTVDKSRWQQGNVFSCSVMHEALHNHYTQKSLSLSPGK
light: DIQMTQSPSSLSASVGDRVTITCKANEDINNRLAWYQQKPGKAPKLLISGATNLVTGVPSRFSGSGSGKDYTLTISSLQPEDFATYYCQQYWSTPFTFGQGTKLEIKRTVAAPSVFIFPPSDEQLKSGTASVVCLLNNFYPREAKVQWKVDNALQSGNSQESVTEQDSKDSTYSLSSTLTLSKADYEKHKVYACEVTHQGLSSPVTKSFNRGEC
notes: CE7-1-2-VHB (L234A L235A P331S N297A) + CE7-1-NL1-VLA, aglycosylated human IgG1 kappa; also called CE7-varant7-AG; huCE7 variant 7AG
Q: How did the Kd [1] turn out when B1 was run?
A: Its Kd is about 4 nM.

Q: What about the Kd [2] of the same binder?
A: Its Kd is under 0.00971 nM.

Q: What about the koff [2] of the same binder?
A: The koff was under 1e-05 s⁻¹.

Q: What about the kon [2] of the same binder?
A: Its kon is 1.03e+06 M⁻¹ s⁻¹.

Q: What about the EC50 [3] of the same binder?
A: Its EC50 is 0.0258 µg/mL.

Q: And the Kd [4]?
A: Its Kd is 0.0238 nM.

Q: And the koff [4]?
A: The koff was 3.53e-05 s⁻¹.

Q: And the kon [4]?
A: Its kon is 1.48e+06 M⁻¹ s⁻¹.

B2: huCE7 variant LV42 (antibody, human IgG1, kappa, L234A L235A, N297A)
heavy: B1 heavy with T310P
light: B1 light
notes: Variant 7AG with HC TH307P; also called huCE7-variant42
Q: B2 was tested. Which kon [4] did it give?
A: The kon was 1.92e+06 M⁻¹ s⁻¹.

B3: CE7-variant28 (antibody, V domains shown)
VH: QVQLVQSGAEVKKPGASVKVSCKASGYTFTGYWMHWVRQAPGQGLEWMGEINPSNGRTNYNEKFQGRVTLTVDKSISTAYMELSRLRSDDTAVYYCARDYYGTSYNFDYWGQGTLVTVSS
VL: DIQMTQSPSSLSASVGDRVTITCRASQGINNRLAWYQQKPGKAPKLLISGASNLVSGVPSRFSGSGSGKDYTLTISSLQPEDFATYYCQQYWSTPFTFGQGTKLEIKR
notes: CE7-1-2-VHD + CE7-1-NL1-VLD; human IgG1 kappa, L234A L235A P331S N297A (aglycosylated); also called humanized variant 28
Q: What does the source list for B3?
A: EC50 [3]: 0.0701 µg/mL; Kd [5]: 0.046 nM; koff [5]: 3.62e-05 s⁻¹; kon [5]: 787000 M⁻¹ s⁻¹

B4: huCE7 variant LV38 (antibody, human IgG1, kappa, L234A L235A, N297A)
heavy: B1 heavy with W33F, G56A, L312D
light: B1 light with N31A, W92Y
notes: Variant 7AG with HC WH33F, GH55A, LH309D and LC NL31A, WL92Y; also called huCE7-variant38
Q: Which Kd [4] does the source give for B4 here?
A: The Kd was 0.268 nM.

Q: And the koff [4]?
A: Its koff is 3.23e-05 s⁻¹.

Q: What about the kon [4] of the same binder?
A: Its kon is 121000 M⁻¹ s⁻¹.

B5: CE7-variant26 (antibody, V domains shown)
VH: B3 VH
VL: B3 VL with S26N, Q27E, G28D, S52T, S56T
notes: CE7-1-2-VHD + CE7-1-NL1-VLB; human IgG1 kappa, L234A L235A P331S N297A (aglycosylated); also called humanized variant 26
Q: B5 was tested. Which EC50 [3] did it give?
A: Its EC50 is 0.0127 µg/mL.

Q: And the Kd [5]?
A: Its Kd is 0.000186 nM.

Q: What about the koff [5] of the same binder?
A: Its koff is 1.65e-07 s⁻¹.

Q: And the kon [5]?
A: Its kon is 891000 M⁻¹ s⁻¹.

B6: CE7-variant7 (antibody)
heavy: B1 heavy with A300N
light: B1 light
notes: also called CE7-12-VHB-1NL1-VLA; humanized variant 7
Q: Which results are given for B6?
A: EC50 [6]: 0.00958 µg/mL; EC50 [7]: 0.0327 µg/mL; Kd [5]: 0.000896 nM; koff [5]: 5.51e-07 s⁻¹; kon [5]: 615000 M⁻¹ s⁻¹

B7: CE7-variant18-AG (antibody)
heavy: QVQLQQWGAGLLKPSETLSLTCAAYGYTFTGYWMHWIRQPPGKGLEWIGEINPSNGRTNYNERLKSRVTLSVDKSKNQASLKLSSVTAADTAVYFCARDYYGTSYNFDYWGQGTLVTVSSASTKGPSVFPLAPSSKSTSGGTAALGCLVKDYFPEPVTVSWNSGALTSGVHTFPAVLQSSGLYSLSSVVTVPSSSLGTQTYICNVNHKPSNTKVDKKVEPKSCDKTHTCPPCPAPEAAGGPSVFLFPPKPKDTLMISRTPEVTCVVVDVSHEDPEVKFNWYVDGVEVHNAKTKPREEQYASTYRVVSVLTVLHQDWLNGKEYKCKVSNKALPASIEKTISKAKGQPREPQVYTLPPSREEMTKNQVSLTCLVKGFYPSDIAVEWESNGQPENNYKTTPPVLDSDGSFFLYSKLTVDKSRWQQGNVFSCSVMHEALHNHYTQKSLSLSPGK
light: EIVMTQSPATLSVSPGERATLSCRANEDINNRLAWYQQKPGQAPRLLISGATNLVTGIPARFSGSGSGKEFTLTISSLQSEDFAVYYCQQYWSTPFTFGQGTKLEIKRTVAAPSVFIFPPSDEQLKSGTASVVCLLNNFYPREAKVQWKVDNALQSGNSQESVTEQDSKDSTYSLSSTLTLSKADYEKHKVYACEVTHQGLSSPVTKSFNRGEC
notes: CE7-4-34-VHA (L234A L235A P331S N297A) + CE7-3-15-VLB, aglycosylated human IgG1 kappa; N297 of IgG1 numbering is residue 319 of the entry (QYNST); also called CE7-varant18-AG
Q: What does the source list for B7?
A: Kd [2]: 0.00124 nM; koff [2]: 1.35e-06 s⁻¹; kon [2]: 1.09e+06 M⁻¹ s⁻¹

B8: chimeric cHCE7 (antibody, V domains shown)
VH: QVQLQQPGAELVKPGASVKLSCKASGYTFTGYWMHWVKQRPGHGLEWIGEINPSNGRTNYNERFKSKATLTVDKSSTTAFMQLSGLTSEDSAVYFCARDYYGTSYNFDYWGQGTTLTVSS
VL: DIQMTQSSSSFSVSLGDRVTITCKANEDINNRLAWYQQTPGNSPRLLISGATNLVTGVPSRFSGSGSGKDYTLTITSLQAEDFATYYCQQYWSTPFTFGSGTELEIK
notes: Control antibody; also called chimeric HCE7; CE7 chimeric antibody
Q: B8 was tested. Which EC50 [8] did it give?
A: The EC50 was 0.00663 µg/mL.

Q: What about the Kd [2] of the same binder?
A: Its Kd is 0.0519 nM.

Q: And the koff [2]?
A: The koff was 4.39e-05 s⁻¹.

Q: What about the kon [2] of the same binder?
A: The kon was 845000 M⁻¹ s⁻¹.

Q: And the EC50 [9]?
A: The EC50 was 0.0232 µg/mL.

B9: Deglycosylated cHCE7 (antibody, V domains shown)
VH: B8 VH
VL: B8 VL
modifications: deglycosylated (so in the source); site and method not stated for this sample
notes: also called cHCE7 degly; cHCE7 deglycosylated
Q: For B9, which Kd [1] is on record?
A: Its Kd is about 4 nM.

Q: And the Kd [2]?
A: Its Kd is 0.12 nM.

Q: What about the koff [2] of the same binder?
A: Its koff is 9.59e-05 s⁻¹.

Q: What about the kon [2] of the same binder?
A: The kon was 806000 M⁻¹ s⁻¹.

Q: And the EC50 [3]?
A: The EC50 was 0.0131 µg/mL.
